Columns and labels:
mouse Sema 3A protein = molecular target: T1, mouse Sema 3A protein (mouse, UniProt O08665 21-772, limits assumed); experiment: competitive ELISA on plate-coated mouse Sema 3A; competitor biotin-labelled avian-mouse chimeric antibody (clone No. 4-2) at 60 ng/mL
T1 construct: Produced from mouse Sema 3A protein expressing cells; also called Mouse Sema 3A antigen
T1 sequence (looked up): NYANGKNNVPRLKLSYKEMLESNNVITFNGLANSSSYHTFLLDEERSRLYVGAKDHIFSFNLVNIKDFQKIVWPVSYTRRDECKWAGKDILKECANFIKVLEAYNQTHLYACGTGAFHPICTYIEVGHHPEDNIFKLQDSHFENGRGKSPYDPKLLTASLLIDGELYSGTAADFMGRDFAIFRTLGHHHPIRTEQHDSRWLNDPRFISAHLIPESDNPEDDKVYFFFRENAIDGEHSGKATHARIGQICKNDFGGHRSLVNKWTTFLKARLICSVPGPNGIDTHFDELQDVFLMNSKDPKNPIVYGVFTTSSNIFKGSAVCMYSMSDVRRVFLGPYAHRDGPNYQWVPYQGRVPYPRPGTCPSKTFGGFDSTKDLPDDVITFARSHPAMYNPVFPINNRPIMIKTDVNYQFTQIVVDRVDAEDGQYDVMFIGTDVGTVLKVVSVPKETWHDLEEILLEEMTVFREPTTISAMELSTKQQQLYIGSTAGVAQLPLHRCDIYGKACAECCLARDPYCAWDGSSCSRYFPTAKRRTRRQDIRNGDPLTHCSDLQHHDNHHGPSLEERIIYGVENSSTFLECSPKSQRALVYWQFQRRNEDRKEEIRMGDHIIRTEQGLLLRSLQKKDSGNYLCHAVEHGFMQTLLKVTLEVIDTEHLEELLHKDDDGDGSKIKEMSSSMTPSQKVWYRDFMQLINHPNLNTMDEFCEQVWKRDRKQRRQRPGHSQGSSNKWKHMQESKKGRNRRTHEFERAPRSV
Experimental: The obtained clone No. 4-2-derived avian-mouse chimeric antibody in Example 1, the obtained humanized antibodies in Example 2 (Humanized-1 and Humanized-2) and avian-human chimeric antibody were subjected to competitive ELISA to evaluate affinity to the antigen. CL18M (+) avian-mouse chimeric antibody, which served as a negative control, was also measured for affinity to the antigen. Particular measurement conditions were as follows.
Firstly, 2.5 μg/mL of antigen (mouse and human Sema 3A protein) was dispensed into a 384 Well MaxiSorp Plate (Nunc) and reacted overnight at 4° C. in order to coat the plate with the antigen. The next day, the plate was washed three times with 50 μL/well of washing solution (PBS containing 0.05% Tween 20), to which was added 25 μL/well of blocking solution (PBS containing 1% bovine serum albumin) and the mixture was reacted for 30 minutes. Each of humanized antibodies (Humanized-1 and Humanized-2), avian-human chimeric antibody and avian-mouse chimeric antibody was subjected to serial doubling dilution, to which was mixed anti-Sema 3A avian-mouse chimeric antibody labeled with biotin to the final concentration of 60 ng/mL, and the mixture was reacted with the antigen solid phase plate which was washed three times with 50 μL/well of washing solution for one hour. The plate was washed five times with 50 μL/well of washing solution, to which was added 20 μL/well of diluent in which streptavidin labeled with horseradish peroxidase (HRP) (Thermo Fisher Scientific K.K.) was diluted 10000 times with PBS buffer and the mixture was reacted for 30 minutes. The plate was washed five times with 50 μL/well of washing solution, to which was added 20 μL/well of TMB+(Dako) and the mixture was chromogenically reacted for 20 minutes. Subsequently, to the each well was added 20 μL, of 1M sulfuric acid to quench the reaction. The absorbance was measured at 450 nm using Infinite M1000 (Tecan Trading AG).

ovalbumin (OVA) = molecular target: T2, ovalbumin (OVA) (UniProt P01012 2-386); experiment: antigen solid phase ELISA: coated ovalbumin (negative control), anti-mouse IgG2A-HRP, OD450
T2 sequence (looked up): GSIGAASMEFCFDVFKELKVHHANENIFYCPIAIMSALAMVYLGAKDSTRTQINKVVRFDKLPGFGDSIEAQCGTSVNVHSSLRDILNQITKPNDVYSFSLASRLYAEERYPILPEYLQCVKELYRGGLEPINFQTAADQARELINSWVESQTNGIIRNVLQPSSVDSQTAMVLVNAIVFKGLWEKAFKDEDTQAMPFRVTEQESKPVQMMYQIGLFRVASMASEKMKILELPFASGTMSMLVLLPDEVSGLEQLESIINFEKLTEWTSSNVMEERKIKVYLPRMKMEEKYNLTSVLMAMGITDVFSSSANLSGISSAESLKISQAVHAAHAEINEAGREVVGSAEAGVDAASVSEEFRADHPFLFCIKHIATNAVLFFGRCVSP
Experimental: The antigen specificity of the purified antibody was measured by ELISA with PBS buffer. 2.5 μg/mL of antigen was dispensed to a 96 well Maxi Sorp Plate (Nunc) and reacted overnight at 4° C. to coat the plate with an antigen (mouse Sema 3A protein). Ovalbumin, rabbit IgG and skim milk were immobilized in the plate as negative controls in similar manner in order to examine specificity of antibodies. The next day, the plate was washed three times with 200 μL/well of washing solution (PBS containing 0.05% Tween 20), to which was added 200 μL/well of blocking solution (PBS containing 0.5% skim milk) and the mixture was reacted for 30 minutes. The plate was washed three times with 200 μL/well of washing solution, to which was added 100 μL of culture supernatant containing antibody and the mixture was reacted for one hour. The plate was washed five times with 200 μL/well of washing solution, to which was added 100 μL/well of diluent in which anti-mouse IgG2A goat antibody labeled with horseradish peroxidase (HRP) (Bethyl Laboratories, Inc.) was diluted 2000 times with PBS buffer and the mixture was reacted for one hour. […] The absorbance was measured at 450 nm using μQuantBiomolecular Spectrometer (Bio Tek Instruments, Inc.) Results are shown in FIG. 2.

IC50 (mouse Sema 3A protein): 0.147 µg/mL
binding result (ovalbumin (OVA)): no binding (tested: 100 ng/µL)
B1: Anti-Sema 3A avian-mouse chimeric antibody (clone No. 4-2-derived) (antibody, mouse IgG2a)
heavy: AVTLDESGGGLQTPGGALSLVCKASGFTFSSYPMGWVRQAPGKGLEWVAGIDDDGDSDTRYAPAVKGRATISRDNGQSTVRLQLNNLRAEDTGTYYCAKHTGIGANSAGSIDAWGHGTEVIVSSAKTTAPSVYPLAPVCGDTTGSSVTLGCLVKGYFPEPVTLTWNSGSLSSGVHTFPAVLQSDLYTLSSSVTVTSSTWPSQSITCNVAHPASSTKVDKKIEPRGPTIKPCPPCKCPAPNLLGGPSVFIFPPKIKDVLMISLSPIVTCVVVDVSEDDPDVQISWFVNNVEVHTAQTQTHREDYNSTLRVVSALPIQHQDWMSGKEFKCKVNNKDLPAPIERTISKPKGSVRAPQVYVLPPPEEEMTKKQVTLTCMVTDFMPEDIYVEWTNNGKTELNYKNTEPVLDSDGSYFMYSKLRVEKKNWVERNSYSCSVVHEGLHNHHTTKSFSRTPGK
light: ALTQPASVSANLGGTVKITCSGGGSYTGSYYYGWYQQKSPGSALVTMIYYNNKRPSDIPSRFSGSLSGSTNTLTITGVRADDEAVYFCGSADNSGDAFGAGTTLTVLGQPKSSPSVTLFPPSSEELETNKATLVCTITDFYPGVVTVDWKVDGTPVTQGMETTQPSKQSNNKYMASSYLTLTARAWERHSSYSCQVTHEGHTVEKSLSRADCS
notes: Avian variable regions of clone No. 4-2 with mouse IgG2a heavy and mouse lambda light constant regions; also called anti-Sema 3A avian-mouse chimeric antibody (IgG)

Source: patent US20150368327A1 (YOKOHAMA CITY UNIVERSITY, published 2015)
